# Reference: publication PMC5477135, “Imaging of αvβ3 integrin expression in experimental myocardial ischemia with [^68Ga]NODAGA-RGD positron emission tomography” (Journal of Translational Medicine, 2017)
# Marks after values point to notes of the source that are not given here.
# Assays:
# [1] = in vivo; conditions: Finnish landrace, pig, iv, total radioactivity
# Method: (§1) Coronary stenosis was created in 11 domestic, 3-month old pigs weighing 30–35 kg by implanting a bottleneck stent in the proximal LAD coronary artery as described previously. In addition, a sham group of 4 pigs underwent a catheterization procedure without the stent implantation. Myocardial [^68Ga]NODAGA-RGD uptake was evaluated by PET 13 ± 4 days after the stent implantation. […] Three pigs without a perfusion defect during adenosine stress were considered as procedural failures and excluded from further in vivo analyses.
# (§2) Then a [^68Ga]NODAGA-RGD PET was performed with an ECAT EXACT HR+ scanner (Siemens-CTI, Knoxville, TN, USA). The studies were started with a 10 min transmission scan. The dynamic scanning started at the same time as 310 ± 43 MBq (230–400 MBq) of [^68Ga]NODAGA-RGD was injected via the ear vein. The acquisition time frames were as follows: 18 × 10 s, 4 × 30 s, 2 × 120 s, 1 × 180 s, 4 × 300 s, 3 × 600 s (total duration 62 min). The acquired [^68Ga]NODAGA-RGD PET data were corrected for scatter, random counts, and dead time and iteratively reconstructed with ordered-subsets expectation maximization (OSEM) algorithm using 2 iterations and 32 subsets. The whole transaxial field of view (70 cm) was reconstructed in 256 × 256 matrix yielding to pixel size of 2.57 mm × 2.57 mm. The device produces 63 axial planes with a slice thickness of 2.43 mm.
# (§3) For quantification of [^68Ga]NODAGA-RGD uptake in the myocardium, the [^15O]water images and the [^68Ga]NODAGA-RGD images were co-registered using the high blood pool activity of the [^68Ga]NODAGA-RGD as a landmark (Fig. 1). The myocardial contours from the [^15O]water images were copied to the co-registered [^68Ga]NODAGA-RGD data. Then, the polar maps of [^68Ga]NODAGA-RGD uptake expressed as standardized uptake value (SUV) (time frame 52–62 min after injection) in the LV myocardium were generated using matching image orientation and sampling points. The region of interest (ROI) defining the ischemic area was copied from the [^15O]water polar maps to measure [^68Ga]NODAGA-RGD uptake in this region. The septum was excluded from the measurements to prevent spillover from the blood in the right ventricle. The mean and maximum SUVs were determined from the ischemic area. In order to measure the SUVs, ROI was modified to include only the mid-myocardium in order to avoid spill-over from blood. The maximum SUV within the ROI was determined from area showing visually the highest uptake. One segment in the posterolateral wall (segment 11) that was always outside the ischemic area was used to measure [^68Ga]NODAGA-RGD uptake in the remote myocardium. The ischemic-to-remote SUV ratio was calculated in the ischemic area and remote myocardium.
# [2] = tested on: αvβ3 integrin; assay: in vivo; conditions: pig
# Method: as §1, §2, §3
# [3] = tested on: αvβ3 integrin; conditions: pig, in vivo
# Excerpt: Subsequently, the pigs were euthanized and their hearts were excised. Based on 1% 2,3,5-triphenyltetrazolium chloride (TTC) (Sigma-Aldrich, Saint Louis, MO, USA) staining, tissue samples were obtained from the injured ischemic (TTC negative) and adjacent viable ischemic (TTC positive) myocardium as well as from the remote non-ischemic myocardium. Autoradiography of myocardial tissue sections was used to compare [^68Ga]NODAGA-RGD uptake with the histology, αvβ3 integrin expression and CD31 on endothelial cells. Tissue samples were frozen in isopentane mixed with dry ice and cut into serial 40 and 7 µm sections for autoradiography and immunohistochemical stainings respectively, using a cryomicrotome. Tissue sections of 40 μm thickness were immediately exposed on a phosphor imaging plate (BAS-TR2025, Fuji Photo Film Co. Ltd., Tokyo, Japan) for 2 h. The distribution of radioactivity on the plate was visualized and quantified using a Fluorescent Image Analyzer (Fujifilm FLA-5100, Fuji Photo Film Co. Ltd., Tokyo, Japan). Autoradiographs and hematoxylin & eosin (HE) staining images of the same sections were co-registered and [^68Ga]NODAGA-RGD accumulation was measured by drawing ROIs covering remote myocardium, and either viable or injured ischemic myocardium using TINA™ 2.10f software (Raytest Isotopenmessgeräte GmbH., Straubenhardt, Germany). Results were expressed as photostimulated luminescence per square millimetre (PSL/mm^2) and normalized for the injected radioactivity dose, animal weight and the radioactivity decay. Serial tissue sections of 7 μm were stained with H&E for general histology, Masson’s trichrome for differentiation myocytes and collagenous scar, and immunohistochemistry with antibodies against of CD31 on endothelial cells (dilution 1:250, Thermo Scientific, Cheshire, UK), αvβ3 integrin (dilution 1:200, Millipore, Temecula, CA, USA) and α-smooth muscle actin on myofibroblasts (dilution 1:30,000, Sigma-Aldrich, St. Louis, MO, USA). […]
# [4] = tested on: αvβ3 integrin; conditions: pig, in vivo; remark: listed apart in the source
# Excerpt: Subsequently, the pigs were euthanized and their hearts were excised. Based on 1% 2,3,5-triphenyltetrazolium chloride (TTC) (Sigma-Aldrich, Saint Louis, MO, USA) staining, tissue samples were obtained from the injured ischemic (TTC negative) and adjacent viable ischemic (TTC positive) myocardium as well as from the remote non-ischemic myocardium. Autoradiography of myocardial tissue sections was used to compare [^68Ga]NODAGA-RGD uptake with the histology, αvβ3 integrin expression and CD31 on endothelial cells. Immediately after the PET scanning, the animals were sacrificed by an i.v. injection of potassium chloride (B. Braun Medical Oy, Helsinki, Finland). The heart was excised, the LV was cut into 4 short axis slices from base to apex that were incubated for 15 min in 1% TTC (Sigma-Aldrich, Saint Louis, MO, USA), diluted in phosphate-buffered saline (pH 7.4) at 37 °C, photographed from both sides and the presence of non-viable ischemic area was confirmed visually. Based on the TTC staining, transmural samples containing non-viable and immediately adjacent viable myocardium were collected from the LV wall corresponding to the ischemic area in PET images. Another sample was obtained from the posterior LV wall representative of the remote region (segment number 11). Myocardial samples and a blood sample were weighed and measured for radioactivity using the gamma counter (Wizard). The radioactivity concentration was expressed as standardized uptake values (SUV = ([tissue radioactivity/tissue weight]/[total given radioactivity/animal body weight])).
# [5] = in vivo; conditions: pig, iv, total radioactivity
# Method: During the [^68Ga]NODAGA-RGD PET imaging, blood samples (2 ml) were obtained into heparinized tubes from the femoral artery 2, 5, 10, 20, 30, 40, 50 and 60 min after the injection of [^68Ga]NODAGA-RGD for the measurements of total radioactivity, radiometabolites (proportion of authentic tracer), and plasma-to-blood ratio. The radioactivities of whole blood and blood plasma were measured using a gamma counter (1480 Wizard 3″; PerkinElmer, Turku, Finland).
# [6] = in vitro; assay type: in vitro ADME; conditions: plasma
# Method: To evaluate species-dependent differences, the [^68Ga]NODAGA-RGD binding to human, pig and rat plasma proteins was measured using in vitro assay as described previously.
structure (smiles),measurement,setting,value
"N=C(N)NCCC[C@@H]1NC(=O)[C@H](CCCCNC(=O)CCC(C(=O)O)N2CCN(CC(=O)O)CCN(CC(=O)O)CC2)NC(=O)[C@@H](Cc2ccc(O)cc2)NC(=O)[C@H](CC(=O)O)NC(=O)CNC1=O (stereo partly shown) [[^68Ga]NODAGA-RGD, metal not drawn]",SUV,[1],1.3 ± 0.2 SUV
same,average myocardial uptake in the ischemic area higher than in the remote myocardium,[2],26%
same,average uptake in the LV myocardium (SUV),[2],0.42 ± 0.10 SUV
same,uptake in anteroseptal wall (segments 7 and 13) (SUV),[2],0.39 ± 0.11 SUV
same,uptake in posterolateral wall (segment 11) (SUV),[2],0.36 ± 0.078 SUV
same,Injured area SUVMax,[2]; iv,0.80 ^† SUV
same,Ischemic area SUVMean,[2]; iv,0.61* SUV
same,"mean uptake by autoradiography, injured area",[3],4.6 ± 2.1 PSL/mm^2
same,"mean uptake by autoradiography, remote area",[3],1.8 ± 0.61 PSL/mm^2
same,"mean uptake by autoradiography, viable ischemic area",[3],2.2 ± 0.85 PSL/mm^2
same,radioactivity in tissue sample from injured myocardium (SUV),[4],0.79 ± 0.21 SUV
same,radioactivity in tissue sample from remote myocardium (SUV),[4],0.49 ± 0.21 SUV
same,radioactivity in tissue sample from viable ischemic myocardium (SUV),[4],0.49 ± 0.17 SUV
same,tissue to tissue ratio,[5],1.4 ± 0.1
same,fraction unbound,[6]; pig,0.93 ± 0.017
same,fraction unbound,[6]; rat,0.94 ± 0.011
